Source: publication PMC10649158

Molecular target: Canavalia villosa seed lectin (Cvill) (Canavalia villosa)
Assay: crystal structure; Cvill with alpha-methyl-D-mannopyranoside; 17.5% PEG1000, 0.1 M potassium phosphate citrate pH 4.2, 200 mM lithium sulfate, room temperature; space group I222, one monomer per asymmetric unit; tetramer formed by the crystal's 222 symmetry, dimers and tetramers predicted with PISA

stoichiometry N: 4
Substance: Canavalia villosa seed lectin (Cvill) (natural protein)
